Assay results reported in paper doi:10.1101/2025.05.24.655746 (bioRxiv, 2025).
Positions count from the first letter of the chain named.

B1: RAD51 recombinase (natural protein)
chain: MAMQMQLEANADTSVEEESFGPQPISRLEQCGINANDVKKLEEAGFHTVEAVAYAPKKELINIKGISEAKADKILAEAAKLVPMGFTTATEFHQRRSEIIQITTGSKELDKLLQGGIETGSITEMFGEFRTGKTQICHTLAVTCQLPIDRGGGEGKAMYIDTEGTFRPERLLAVAERYGLSGSDVLDNVAYARAFNTDHQTQLLYQASAMMVESRYALLIVDSATALYRTDYSGRGELSARQMHLARFLRMLLRLADEFGVAVVITNQVVAQVDGAAMFAADPKKPIGGNIIAHASTTRLYLRKGRGETRICKIYDSPCLPEAEAMFAINADGVGDAKD
B2: full-length RAD51AP1 Site-N mutant (K300, K303, W304, P306, P307 to alanine) (natural protein)
chain: MVRPVRHKKPVNYSQFDHSDSDDDFVSATVPLNKKSRTAPKELKQDKPKPNLNNLRKEEIPVQEKTPKKRLPEGTFSIPASAVPCTKMALDDKLYQRDLEVALALSVKELPTVTTNVQNSQDKSIEKHGSSKIETMNKSPHISNCSVASDYLDLDKITVEDDVGGVQGKRKAASKAAAQQRKILLEGSDGDSANDTEPDFAPGEDSEDDSDFCESEDNDEDFSMRKSKVKEIKKKEVKVKSPVEKKEKKSKSKCNALVTSVDSAPAAVKSESQSLPKKVSLSSDTTRKPLEIRSPSAESAKPAAVAAAASGGSRSSSSPLVVVSVKSPNQSLRLGLSRLARVKPLHPNATST

Columns and labels:
[1] = biological target: T1, full-length RAD51AP1 variant in which both Site-N and Site-C are mutated (NC) (UniProt Q96B01 1-352); experiment: BLI
T1 chain: B2 chain with H346A

[2] = biological target: T2, full-length RAD51AP1-H346A (Site-C mutant) (UniProt Q96B01 1-352, H346A); experiment: BLI
T2 sequence: B2 chain with A300K, A303K, A304W, A306P, A307P, H346A

[3] = biological target: T3, full-length RAD51AP1 (RAD51 Associated Protein 1), wild type (UniProt Q96B01 1-352); experiment: BLI
T3 sequence: B2 chain with A300K, A303K, A304W, A306P, A307P

[4] = biological target: B1; experiment: pull-down

Row | Binder | fold reduction in affinity against wild type [1] [fold] | fold decrease in binding affinity against wild type [2] [fold] | Kd [3] [nM] | binding result [4]
1 | B1 | ~4 | ~2.5 | ~600 | 
2 | B2 |  |  |  | binds
